Source: PMC7440919, “Cryo-EM structure of the lysosomal chloride-proton exchanger CLC-7 in complex with OSTM1” (eLife, 2020)

B1: human osteopetrosis-associated transmembrane protein 1 (OSTM1) (natural protein)
chain: ALPFGSSPHRVFHDLLSEQQLLEVEDLSLSLLQGGGLGPLSLPPDLPDLDPECRELLLDFANSSAELTGCLVRSARPVRLCQTCYPLFQQVVSKMDNISRAAGNTSESQSCARSLLMADRMQIVVILSEFFNTTWQEANCANCLTNNSEELSNSTVYFLNLFNHTLTCFEHNLQGNAHSLLQTKNYSEVCKNCREAYKTLSSLYSEMQKMNELENKAEPGTHLCIDVEDAMNITRKLWSRTFNCSVPCSDTVPVIAVSVFILFLPVVFYLSSFLHSEQKKRKLILPKRLKSSTSFANIQENSN
modifications: N-linked carbohydrate at asparagines 93, 128, 163, 184, 194, 263 and 274; five disulfide bonds in the luminal domain
notes: OSTM1, human, single-pass transmembrane protein; synthesized gene (SynBio); C-terminal cytoplasmic domain disordered in the structure; Printed residue numbers appear to count on the precursor; also called hsOSTM1; beta-subunit of CLC-7; not shown: mVenus, C-terminal, cleaved
B2: human CLC-7 (natural protein, UniProt P51798 1-805, looked up)
chain: MANVSKKVSWSGRDRDDEEAAPLLRRTARPGGGTPLLNGAGPGAARQSPRSALFRVGHMSSVELDDELLDPDMDPPHPFPKEIPHNEKLLSLKYESLDYDNSENQLFLEEERRINHTAFRTVEIKRWVICALIGILTGLVACFIDIVVENLAGLKYRVIKGNIDKFTEKGGLSFSLLLWATLNAAFVLVGSVIVAFIEPVAAGSGIPQIKCFLNGVKIPHVVRLKTLVIKVSGVILSVVGGLAVGKEGPMIHSGSVIAAGISQGRSTSLKRDFKIFEYFRRDTEKRDFVSAGAAAGVSAAFGAPVGGVLFSLEEGASFWNQFLTWRIFFASMISTFTLNFVLSIYHGNMWDLSSPGLINFGRFDSEKMAYTIHEIPVFIAMGVVGGVLGAVFNALNYWLTMFRIRYIHRPCLQVIEAVLVAAVTATVAFVLIYSSRDCQPLQGGSMSYPLQLFCADGEYNSMAAAFFNTPEKSVVSLFHDPPGSYNPLTLGLFTLVYFFLACWTYGLTVSAGVFIPSLLIGAAWGRLFGISLSYLTGAAIWADPGKYALMGAAAQLGGIVRMTLSLTVIMMEATSNVTYGFPIMLVLMTAKIVGDVFIEGLYDMHIQLQSVPFLHWEAPVTSHSLTAREVMSTPVTCLRRREKVGVIVDVLSDTASNHNGFPVVEHADDTQPARLQGLILRSQLIVLLKHKVFVERSNLGLVQRRLRLKDFRDAYPRFPPIQSIHVSQDERECTMDLSEFMNPSPYTVPQEASLPRVFKLFRALGLRHLVVVDNRNQVVGLVTRKDLARYRLGKRGLEELSLAQT
notes: CLC-7 (CLCN7) chloride-proton exchanger, human; synthesized gene (SynBio); called full-length in the results for the human CLC-7 expressed alone; the methods describe only the mCerulean construct used for the complex with OSTM1; also called hsCLC-7; hsCLCN7; not shown: mCerulean, C-terminal, cleaved

Key:
[1] = molecular target: chicken CLC-7 (Gallus gallus (chicken)); assay: cryo-EM structure; purified ggCLC-7 at 2 mg/ml in LMNG, 50 mM Tris-HCl pH 8, 150 mM KCl, 2 mM DTT; C2 symmetry imposed
human CLC-7 = molecular target: B2; assay: cryo-EM structure; purified co-expressed hsCLC-7/OSTM1 complex at 2 mg/ml, supplemented with 1 mM ATP and 0.1% LMNG; 50 mM Tris-HCl pH 8, 150 mM KCl, 2 mM DTT; C2 symmetry imposed, local refinements; conditions: both partners purified
[2] = molecular target: the molecule itself; assay: as above

Work on chicken CLC-7 (natural protein) yielded a stoichiometry N [1] of 2.

With B1 the binding result (human CLC-7) was “binds” and the “stoichiometry N” value [2] was 2.

In the case of B2, the “stoichiometry N” value [2] is reported as 2.
